Target: fibrin clot obtained by reacting fibrinogen with thrombin

B1: recombinant protein HtrA2 (residues 134-458 of the HtrA2 amino acid sequence) (protein)
chain: AVPSPPPASPRSQYNFIADVVEKTAPAVVYIEILDRHPFLGREVPISNGSGFVVAADGLIVTNAHVVADRRRVRVRLLSGDTYEAVVTAVDPVADIATLRIQTKEPLPTLPLGRSADVRQGEFVVAMGSPFALQNTITSGIVSSAQRPARDLGLPQTNVEYIQTDAAIDFGNSGGPLVNLDGEVIGVNTMKVTAGISFAIPSDRLREFLHRGEKKNSSSGISGSQRRYIGVMMLTLSPSILAELQLREPSFPDVQHGVLIHKVILGSPAHRAGLRPGDVILAIGEQMVQNAEDVYEAVRTQSQLAVQIRRGRETLTLYVTPEVTE
- A415 (dissolution of the fibrin clot, spectrophotometer, 2 mg/ml enzyme, 37 C, 24 h): 1 ± 0.09 A415

Source: patent US20220362355
